Blank lines part the entries; values can stand above or below the molecule they belong to.
Assays:
[1] = target: human class I histocompatibility antigens (HLA-A,B,C) (human); experiment: indirect immunofluorescence flow cytometry on Colo205 cells; mouse IgG at 5 µg/ml [d]
[2] = target: human class I histocompatibility antigens (HLA-A,B,C) (human); experiment: indirect immunofluorescence flow cytometry on OAW42 ovarian tumour cells, mAb 1 µg/ml
[3] = target: human class I histocompatibility antigens (HLA-A,B,C) (human); experiment: indirect immunofluorescence flow cytometry on MKN45 gastric tumour cells, mAb 1 µg/ml
[4] = target: human class I histocompatibility antigens (HLA-A,B,C) (human); experiment: indirect immunofluorescence flow cytometry on OVCA433 ovarian tumour cells, mAb 1 µg/ml
[5] = target: human class I histocompatibility antigens (HLA-A,B,C) (human); experiment: indirect immunofluorescence flow cytometry on ST16 gastric tumour cells, mAb 1 µg/ml
[6] = target: human class I histocompatibility antigens (HLA-A,B,C) (human); experiment: indirect immunofluorescence flow cytometry on Colo201 colorectal tumour cells, mAb 1 µg/ml
[7] = target: human class I histocompatibility antigens (HLA-A,B,C) (human); experiment: indirect immunofluorescence flow cytometry on DU4475 breast tumour cells, mAb 1 µg/ml
[8] = target: human class I histocompatibility antigens (HLA-A,B,C) (human); experiment: indirect immunofluorescence flow cytometry on MCF7 breast tumour cells, mAb 1 µg/ml
[9] = target: human class I histocompatibility antigens (HLA-A,B,C) (human); experiment: indirect immunofluorescence flow cytometry on HT29 colorectal tumour cells, mAb 1 µg/ml
[10] = target: human class I histocompatibility antigens (HLA-A,B,C) (human); experiment: indirect immunofluorescence flow cytometry on ASPC1 pancreatic tumour cells, mAb 1 µg/ml
[11] = target: human class I histocompatibility antigens (HLA-A,B,C) (human); experiment: indirect immunofluorescence flow cytometry on Panc1 pancreatic tumour cells, mAb 1 µg/ml
[12] = target: human class I histocompatibility antigens (HLA-A,B,C) (human); experiment: indirect immunofluorescence flow cytometry on H69 lung tumour cells, mAb 1 µg/ml
[13] = target: human class I histocompatibility antigens (HLA-A,B,C) (human); experiment: indirect immunofluorescence flow cytometry on OVCAR4 ovarian tumour cells, mAb 1 µg/ml
[14] = target: human class I histocompatibility antigens (HLA-A,B,C) (human); experiment: indirect immunofluorescence flow cytometry on OVCAR3 ovarian tumour cells, mAb 1 µg/ml
[15] = target: human class I histocompatibility antigens (HLA-A,B,C) (human); experiment: indirect immunofluorescence flow cytometry on Colo205 cells; W6/32 at 5 µg/ml [c]
[16] = target: human class I histocompatibility antigens (HLA-A,B,C) (human); experiment: indirect immunofluorescence flow cytometry on Colo205 colorectal tumour cells, mAb 1 µg/ml
[17] = target: human class I histocompatibility antigens (HLA-A,B,C) (human); experiment: indirect immunofluorescence flow cytometry on AGS gastric tumour cells, mAb 1 µg/ml
[18] = target: human class I histocompatibility antigens (HLA-A,B,C) (human); experiment: indirect immunofluorescence flow cytometry on MB-MDA-231 breast tumour cells, mAb 1 µg/ml
[19] = target: human class I histocompatibility antigens (HLA-A,B,C) (human); experiment: indirect immunofluorescence flow cytometry on C170 colorectal tumour cells, mAb 1 µg/ml
CD55 [20] = target: CD55 (UniProt P08174); experiment: indirect immunofluorescence flow cytometry on OVCA433 ovarian tumour cells, mAb 5 µg/ml
CD55 [21] = target: CD55 (UniProt P08174); experiment: indirect immunofluorescence flow cytometry on OVCAR4 ovarian tumour cells, mAb 5 µg/ml
CD55 [22] = target: CD55 (UniProt P08174); experiment: indirect immunofluorescence flow cytometry on H69 lung tumour cells, mAb 5 µg/ml
CD55 [23] = target: CD55 (UniProt P08174); experiment: indirect immunofluorescence flow cytometry on ST16 gastric tumour cells, mAb 5 µg/ml
CD55 [24] = target: CD55 (UniProt P08174); experiment: indirect immunofluorescence flow cytometry on OAW42 ovarian tumour cells, mAb 5 µg/ml
CD55 [25] = target: CD55 (UniProt P08174); experiment: indirect immunofluorescence flow cytometry on Colo205 colorectal tumour cells, mAb 5 µg/ml
CD55 [26] = target: CD55 (UniProt P08174); experiment: indirect immunofluorescence flow cytometry on C170 colorectal tumour cells, mAb 5 µg/ml
CD55 [27] = target: CD55 (UniProt P08174); experiment: indirect immunofluorescence flow cytometry on Panc1 pancreatic tumour cells, mAb 5 µg/ml
CD55 [28] = target: CD55 (UniProt P08174); experiment: indirect immunofluorescence flow cytometry on ASPC1 pancreatic tumour cells, mAb 5 µg/ml
CD55 [29] = target: CD55 (UniProt P08174); experiment: indirect immunofluorescence flow cytometry on HT29 colorectal tumour cells, mAb 5 µg/ml
CD55 [30] = target: CD55 (UniProt P08174); experiment: indirect immunofluorescence flow cytometry on MCF7 breast tumour cells, mAb 5 µg/ml
CD55 [31] = target: CD55 (UniProt P08174); experiment: indirect immunofluorescence flow cytometry on OVCAR3 ovarian tumour cells, mAb 5 µg/ml
CD55 [32] = target: CD55 (UniProt P08174); experiment: indirect immunofluorescence flow cytometry on MKN45 gastric tumour cells, mAb 5 µg/ml
CD55 [33] = target: CD55 (UniProt P08174); experiment: indirect immunofluorescence flow cytometry on MB-MDA-231 breast tumour cells, mAb 5 µg/ml
CD55 [34] = target: CD55 (UniProt P08174); experiment: indirect immunofluorescence flow cytometry on Colo201 colorectal tumour cells, mAb 5 µg/ml
CD55 [35] = target: CD55 (UniProt P08174); experiment: indirect immunofluorescence flow cytometry on AGS gastric tumour cells, mAb 5 µg/ml
Polyvalent Le^a-HSA = experiment: SPR (Biacore X), polyvalent Le^a-HSA coupled to CM5 chip, mAb in flow

UniProt P08174, sequence (P08174 35-353 limits assumed): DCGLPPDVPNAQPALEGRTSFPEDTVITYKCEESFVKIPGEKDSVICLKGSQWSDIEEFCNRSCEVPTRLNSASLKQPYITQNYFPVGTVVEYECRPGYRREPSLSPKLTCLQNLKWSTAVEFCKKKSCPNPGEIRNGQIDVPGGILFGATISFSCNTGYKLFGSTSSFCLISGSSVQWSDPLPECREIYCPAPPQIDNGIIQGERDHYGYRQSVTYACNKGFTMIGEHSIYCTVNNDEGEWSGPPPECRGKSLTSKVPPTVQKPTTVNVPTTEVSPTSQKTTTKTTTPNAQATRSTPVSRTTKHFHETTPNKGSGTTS

Gm value [2]: 318 Gm
Gm value [3]: 15.4 Gm
Gm value [4]: 6790 Gm
Gm value [5]: 33.5 Gm
Gm value [6]: 603 Gm
Gm value [7]: 1360 Gm
Gm value [8]: 515 Gm
Gm value [9]: 1160 Gm
Gm value [10]: 1780 Gm
Gm value [11]: 20.1 Gm
Gm value [12]: 109 Gm
Gm value [13]: 16.4 Gm
Gm value [14]: 633 Gm
Gm [15]: 2600
Gm value [16]: 1300 Gm
Gm value [17]: 1560 Gm
Gm value [18]: 758 Gm
Gm value [19]: 16.5 Gm
Molecule: W6/32 (antibody)

Kd (Polyvalent Le^a-HSA): 0.34 nM
koff (Polyvalent Le^a-HSA): 5.8e-05 s⁻¹
kon (Polyvalent Le^a-HSA): 170000 M⁻¹ s⁻¹
B2: FG88.7 mAb (antibody, V domains shown)
VH: EVKLEESGGGLVQPGGSMKLSCVASGFTFSDAWMNWVRQSPEKGLEWVAEIRSKAINPAIYYAESVKGRFTILRDDSKSSVYLQMNSLRAEDTGIYYCSRSTMITTRDPSRYFDVWGAGTTVTVSS
VL: DIQMTQSPTSLSASVGETVTITCRTSENIHNFLTWYQQKQGKSPQVLVYNAKTLPDGVPSRFSGSGSETQYSLKINSLQPEDFGTYYCQHFWSSPWTFGGGTKLEIKR

Further lines, the molecule ahead of its results:

Molecule: IgG Isotype control (antibody)
Gm [1]: 25.4

Molecule: 791T/36 (antibody)
Gm value (CD55 [20]): 686 Gm
Gm value (CD55 [21]): 328 Gm
Gm value (CD55 [22]): 28.1 Gm
Gm value (CD55 [23]): 903 Gm
Gm value (CD55 [24]): 401 Gm
Gm value (CD55 [25]): 44.4 Gm
Gm value (CD55 [26]): 858 Gm
Gm value (CD55 [27]): 472 Gm
Gm value (CD55 [28]): 7010 Gm
Gm value (CD55 [29]): 916 Gm
Gm value (CD55 [30]): 461 Gm
Gm value (CD55 [31]): 412 Gm
Gm value (CD55 [32]): 231 Gm
Gm value (CD55 [33]): 1160 Gm
Gm value (CD55 [34]): 22.3 Gm
Gm value (CD55 [35]): 1880 Gm

B1: FG88.2 mAb (antibody, V domains shown)
VH: EVKLEESGGGLVQPGGSMKLSCAASGFTFSDAWMNWVRQSPEKGLEWVAEIRSKVINPAIYYAESVKERFTILRDDSKSSVYLQMNSLRAEDTGIYYCSRSTMITTRDPSRYFDVWGAGTTVTVSS
VL: DIQMTQSPTSLSASVGETVTITCRTSENIHNFLTWYQQKQGKSPQVLVYNAKTLPDGVPSRFSGSGSGTQYSLKINSLQPEDFGTYYCQHFWSSPWTFGGGTKLEIKR
Kd (Polyvalent Le^a-HSA): 0.63 nM
koff (Polyvalent Le^a-HSA): 0.000118 s⁻¹
kon (Polyvalent Le^a-HSA): 190000 M⁻¹ s⁻¹

From patent publication US10072073
